± gives the uncertainty stated by the source.

The data set can be described thus: amyloid nucleation score (Sup35N fusion, yeast selection) (log enrichment); library NNK1; higher = more nucleation; inactive = no reads after selection. An outline of the steps: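 The nucleation score equals the log enrichment of output over input reads from DiMSum, centred on the mode score of non-aggregating sequences. It was computed only for sequences with 100 or more input reads. The reads came from Illumina sequencing of plasmid inserts from psi-negative yeast expressing Sup35N fused to peptides of 20 random codons, induced with 100 μM copper sulfate for 24 hours and grown 7 days at 30°C without adenine and uracil.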
In turn, HYIIIRFLNAELTLCHLRMI yielded an amyloid nucleation score of -1.61 ± 1.7.
For HYRCVRGYSFFVLLCDSRIQ the value was -0.497 ± 0.93; for HYRFCYCHSTKS, 1.76 ± 0.42.
The result for HYTLIGIY reads “inactive”.
As to IACCVRSVECGRGCQLRGLA, the amyloid nucleation score worked out at 0.217 ± 0.83.
For the substance IAILIYASAFKSSSGCGVKS, the amyloid nucleation score was 0.177 ± 0.64.
For IALLNGNNLSPT the value was 9.502 ± 0.052; for IAMSIKWRRW, 2.8 ± 0.093; for IAPMSRRFEGMACSFTDEEA, “inactive”.
Substance IAPSNFRGWMAHYKV came in with an amyloid nucleation score of 0.213 ± 0.57.
IASECWET: the amyloid nucleation score is -0.391 ± 0.52.
IASVQLS came in with an amyloid nucleation score of 1.16 ± 0.53.
The result for IAVFRYFDSYRPFTRVSVLF reads “inactive”.
In the case of IAVPRRQPINLSN, the amyloid nucleation score was determined as 0.668 ± 0.56.
For ICCVVESLCYSVMFKHIS the value was 4.55 ± 0.079.
For ICFRIIVAIVQRV the value was 1.14 ± 0.38; for ICNFVSLFNWK, -0.025 ± 0.79.
Consider ICNSLMEDDMGASEVMC, for which the amyloid nucleation score amounted to 0.734 ± 0.57.
In turn, ICQYPPLEVLARYGQIQDIM gave an amyloid nucleation score of 0.207 ± 0.3.
In turn, ICSYTSIVYLFWDDLSLSTL yielded an amyloid nucleation score of 1.7 ± 0.64.
The result for ICYVNVL reads -1.18 ± 1.7; that for IDLGFLNKCLCRNSCCVGEA, 1.81 ± 0.17; that for IDMTEMKIRWV, -0.208 ± 0.27.
IDSFCKCDISCVIFSWIVVV displayed an amyloid nucleation score of 0.024 ± 0.25.
IDSGRAKRLSHMIWISVRHG showed an amyloid nucleation score of -1.93 ± 2.7.
For IDWKLKLMFMCFESKSLVNW the value was -0.655 ± 0.32.
With IECMAMCHSVRSCCGSIYDC, the amyloid nucleation score was -0.422 ± 0.38.
For IEVGIVGNLS the value was “inactive”.
For IFAQKGYTSRFSILM the value was -0.565 ± 0.58; for IFFFKEYCFMQVIRGFVCN, -0.265 ± 1.1.
The substance IFHSAVQTNLSGGCRAGVWL registered an amyloid nucleation score of 0.254 ± 0.83.
For IFILIRYWHCITSSPDVGFG the value was -0.246 ± 0.61; for IFLIVMFPLFNDCLHCYKTC, 1.3 ± 0.13; for IFLPYI, -0.383 ± 1.4.
For IFPPFMDFRNCPVMLNC the value was 0.761 ± 0.2; for IFSSGYAKAFVHLVCSVAQL, -0.458 ± 0.45; for IFTTSNQSEGRGVPAGNPNL, “inactive”.
For IFVYCEFNKNRIPALASWVG the value was 0.93 ± 0.43; for IFWTFRGITMPSC, 0.702 ± 0.55; for IGESDNG, -0.63 ± 0.56.
As to IGGLSGEYWFHLLSSSVLFF, the amyloid nucleation score entry was “inactive”.
IGHGTHG displayed an amyloid nucleation score of 0.282 ± 0.49.
Substance IGIPVLGMNINYCFLR showed an amyloid nucleation score of 0.931 ± 0.29.
IGLMALLGLTRDR: the amyloid nucleation score stood at 2.17 ± 0.12.
On to IGPLYRFCMLNMRFGAGSLN, for which the amyloid nucleation score was 0.428 ± 0.84.
For IGTGLLS the value was 0.451 ± 0.62; for IGVKVTY, -0.796 ± 0.53; for IHKDFSLMHILRIHLVGVFS, “inactive”.
The result for IHKMCRAD reads 0.12 ± 0.55.
As for IHNSVDKTYLCSVLNPRGYS, the amyloid nucleation score entry was “inactive”.
Substance IHSQHKHVIMRA had an amyloid nucleation score of -0.061 ± 0.57.
On to IHVSFKDYLTVSTIMMWTIV, for which the amyloid nucleation score was -0.077 ± 0.66.
The result for IIEIRLNLGAVANLSTYGVM reads 0.327 ± 0.39; that for IIEWFSWWARMIFDDFPYYE, “inactive”.
For IIFCMVFDSVSDDVLYITSK the value was -0.941 ± 0.99; for IIGLVWSVL, 0.993 ± 0.58.
IIICFRTWLTCSFCFDSAPC had an amyloid nucleation score of 0.227 ± 0.49.
For IIISTGVRFTEDSCGFAWAE the value was -0.009 ± 0.66; for IILIDMVCPPCRPRFRSYSC, -0.153 ± 0.69.
For IILSAHVLSRTFLAFVSQKE the value was 0.146 ± 0.77; for IILWAWCKTGGDGIPSGVVL, 0.342 ± 0.23; for IINERSANLYDFVVIDRSWL, -1.04 ± 0.69.
In turn, IISAFISESTYDCGFASWVS had an amyloid nucleation score of -0.187 ± 0.42.
For IISDDNSGMWWVMFLV the value was 0.065 ± 0.61; for IISGIIIRYIDYNYRD, “inactive”; for IKAELAKCLNTACVKFFCDV, 0.715 ± 0.37.
For IKAWWMNHGRYHCLTLRVCL the value was 0.713 ± 0.38; for IKDNITGKSSYGM, 0.418 ± 0.32.
In the case of IKIRAICVCMFDSQEGLGET, the amyloid nucleation score was 0.601 ± 0.43.
For IKWTLLDG the value was 0.871 ± 0.47.
For the substance IKYLSYDVNPPLWFVYNFSF, the amyloid nucleation score came out at 6.29 ± 0.084.
For ILKALF, the amyloid nucleation score came to 1.53 ± 0.8.
For ILKRSCEVVL the value was -0.243 ± 0.47; for ILLICYGSCAPNNMVSASTD, -0.959 ± 0.84.
For the substance ILMHSIAVFTRGIGRIRLAS, the amyloid nucleation score stood at 0.913 ± 0.68.
Regarding ILPAYAQ, the amyloid nucleation score turned out to be 0.134 ± 1.1.
For ILPCFDANIIQDP the value was -0.064 ± 0.81; for ILSFSVRLPVHDSSLCFGSG, 0.316 ± 0.67.
For ILYGRIR the value was “inactive”.
The result for IMCIHSFCFCLRPSHLIVGG reads 0.774 ± 0.41; that for IMEGR, 5.73 ± 0.1; that for IMVCN, -0.197 ± 0.42.
INDYMLYGVLAYILGHGTVQ returned an amyloid nucleation score of 0.622 ± 0.49.
Consider INFCFKCWNKVWLDNFFLSS, for which the amyloid nucleation score was -0.67 ± 0.22.
For INLLVPFQNESVLELNATEW the value was 0.772 ± 0.51; for INLMGSPS, -0.708 ± 0.28; for INRCGGVPARLLLCKLGYLG, 0.298 ± 0.5.
INRFEG registered an amyloid nucleation score of -0.385 ± 0.68.
Turning to INTFARRAVVSSLSWSLACH, the amyloid nucleation score was 0.317 ± 0.64.
The substance INTKRVRSRHSTR gave an amyloid nucleation score of -0.502 ± 0.79.
The substance INVNRG yielded an amyloid nucleation score of 0.239 ± 0.56.
For the substance IPKVIGWFTVVTTGVVVNIS, the amyloid nucleation score is -1.59 ± 2.7.
The result for IPNSRLLNI reads 0.996 ± 0.57.
The substance IPTFSKIGKLFYVCGAEFSD gave an amyloid nucleation score of -0.355 ± 0.88.
Regarding IPVVVV, the amyloid nucleation score came out at 0.014 ± 0.24.
The result for IPWPRTPSSSGMHAL reads 4.81 ± 0.074; that for IQGNFRDLGRDKHDTEVWHP, 0.858 ± 0.45.
On to IQSIIW, for which the amyloid nucleation score is -0.418 ± 0.5.
The result for IRCVERGVWSCTFHIQGNCF reads -0.84 ± 0.91; that for IRGTFRVSYGNGKCNSVMNY, 0.201 ± 0.42.
Substance IRGTLT registered an amyloid nucleation score of -1.42 ± 2.1.
IRHNTRRSSIRTET came in with an amyloid nucleation score of 0.086 ± 0.49.
For IRMFSTLLACNLVIGGCLAN the value was 6.482 ± 0.053.
The result for IRRRRTNIWGWAIYRAISIY reads 0.345 ± 0.4; that for IRSEDKITFPGLCKSRLELV, 0.845 ± 0.67.
On to IRSLKNPF, for which the amyloid nucleation score was 0.275 ± 1.2.
For IRTPYIWLTCRGPYEVRRWD the value was -0.247 ± 0.69.
The substance IRVINYFVWSWTLTIIADFI displayed an amyloid nucleation score of -1.25 ± 2.4.
With ISALGF, the amyloid nucleation score worked out at 1.98 ± 0.72.
Substance ISCVICAMIILRWHV yielded an amyloid nucleation score of 0.045 ± 0.9.
The result for ISEKRISMCGIRNKYIWGHG reads -0.953 ± 1.1.
Regarding ISFPSSDYGGGSAPVEGWLG, the amyloid nucleation score was 0.47 ± 1.2.
For ISGNRSKVWNDGWIRPRYLC the value was 0.679 ± 0.84.
For ISINLRLVRHRGWGNISCWR the value was 2.2 ± 0.33.
Substance ISLAVWGFSILLRIADCSMI showed an amyloid nucleation score of 0.123 ± 1.2.
Take ISLYVSNYRAYDKSPLGEDW: the amyloid nucleation score was 0.398 ± 0.74.
The result for ISNGIYISKEGFHEWSNRH reads 4.18 ± 0.064; that for ISQVYGDNTDFVLLVSSDNV, 0.544 ± 0.33.
The result for ISRPSSSGRLHVVMTSSNAR reads 0.421 ± 0.39.
In the case of ISTDPWAAHYNRTHIQ, the amyloid nucleation score was 1.98 ± 0.15.
On to ISTPIDDPKCLGSLVYFHQM, for which the amyloid nucleation score is -0.693 ± 0.53.
For ISVGCF the value was 0.201 ± 0.49; for ISWSASLDIDINCQCRGLWG, 3.35 ± 0.1; for ISYMHKLCLFSFYLDHKLTL, -1.49 ± 1.4.
The result for ISYSLRGSVRR reads -0.032 ± 0.41; that for ITCLRSCLLFNFSGCTTSDQ, 4.11 ± 0.071; that for ITCYGKCYPSRDKL, 1.27 ± 0.56.
Consider ITGPIEGGVTK, for which the amyloid nucleation score was -0.118 ± 0.8.
Take ITMNVRSSYGLSVIMIELGL: the amyloid nucleation score was found to be 1.02 ± 0.76.
The result for ITPDVGSGTFEV reads 0.022 ± 1.1; that for ITPYQQFWLIVDTIGNMMEI, 2.07 ± 0.2.
Consider ITVRPLPYRPIDVHRYFAQH, for which the amyloid nucleation score came out at 0.77 ± 0.34.
Substance IVGSLYLELYSRR returned an amyloid nucleation score of 1.57 ± 0.18.
As to IVHMIYWVM, the amyloid nucleation score was 0.009 ± 0.61.
For IVIFPFFLVISDLYVVVSLG the value was -0.077 ± 0.53; for IVKWLMGMHWLMLAHGV, 0.181 ± 1.4.
The result for IVLVR reads -1.21 ± 0.69.
As to IVMCEAYFK, the amyloid nucleation score entry was “inactive”.
IVPPLSNCSFIG yielded an amyloid nucleation score of -0.293 ± 0.6.
IVTCESGCRLKSSRDKCPSR: the amyloid nucleation score is 0.284 ± 0.59.
In turn, IVVFQGVCTKMLRTDELIWR had an amyloid nucleation score of 1.18 ± 0.2.
The substance IVYTYRVNIVII came in with an amyloid nucleation score of 7.528 ± 0.044.
Substance IWCFLI returned an amyloid nucleation score of 0.333 ± 0.55.

The values are drawn from the supplement of paper PMC12042874.
